In paper PMC11711316 (Nature Communications, 2025):

Key:
[1] = target: T1, Rab3GAP2N (N-terminal domain of Rab3GAP2, 1-544) (human, UniProt Q9H2M9 1-544); assay: SEC
T1 sequence (looked up): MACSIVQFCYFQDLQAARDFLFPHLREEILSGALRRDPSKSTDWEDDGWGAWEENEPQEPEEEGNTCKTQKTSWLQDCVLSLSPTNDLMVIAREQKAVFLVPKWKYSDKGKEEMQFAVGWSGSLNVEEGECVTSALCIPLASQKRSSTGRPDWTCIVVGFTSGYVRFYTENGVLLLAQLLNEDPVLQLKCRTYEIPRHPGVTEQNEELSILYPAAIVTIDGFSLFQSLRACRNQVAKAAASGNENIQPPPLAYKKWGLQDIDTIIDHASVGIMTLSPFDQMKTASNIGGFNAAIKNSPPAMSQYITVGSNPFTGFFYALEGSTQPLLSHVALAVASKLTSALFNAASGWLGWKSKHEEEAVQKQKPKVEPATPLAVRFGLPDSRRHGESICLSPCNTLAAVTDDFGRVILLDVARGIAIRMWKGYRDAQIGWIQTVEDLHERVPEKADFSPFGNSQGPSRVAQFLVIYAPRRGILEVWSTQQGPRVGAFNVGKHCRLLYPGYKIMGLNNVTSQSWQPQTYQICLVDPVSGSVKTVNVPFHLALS

[2] = target: T2, Rab3GAP2 (human, full length, C-terminal 3x-FLAG) (human, UniProt Q9H2M9 1-1393); assay: SEC
T2 sequence (looked up): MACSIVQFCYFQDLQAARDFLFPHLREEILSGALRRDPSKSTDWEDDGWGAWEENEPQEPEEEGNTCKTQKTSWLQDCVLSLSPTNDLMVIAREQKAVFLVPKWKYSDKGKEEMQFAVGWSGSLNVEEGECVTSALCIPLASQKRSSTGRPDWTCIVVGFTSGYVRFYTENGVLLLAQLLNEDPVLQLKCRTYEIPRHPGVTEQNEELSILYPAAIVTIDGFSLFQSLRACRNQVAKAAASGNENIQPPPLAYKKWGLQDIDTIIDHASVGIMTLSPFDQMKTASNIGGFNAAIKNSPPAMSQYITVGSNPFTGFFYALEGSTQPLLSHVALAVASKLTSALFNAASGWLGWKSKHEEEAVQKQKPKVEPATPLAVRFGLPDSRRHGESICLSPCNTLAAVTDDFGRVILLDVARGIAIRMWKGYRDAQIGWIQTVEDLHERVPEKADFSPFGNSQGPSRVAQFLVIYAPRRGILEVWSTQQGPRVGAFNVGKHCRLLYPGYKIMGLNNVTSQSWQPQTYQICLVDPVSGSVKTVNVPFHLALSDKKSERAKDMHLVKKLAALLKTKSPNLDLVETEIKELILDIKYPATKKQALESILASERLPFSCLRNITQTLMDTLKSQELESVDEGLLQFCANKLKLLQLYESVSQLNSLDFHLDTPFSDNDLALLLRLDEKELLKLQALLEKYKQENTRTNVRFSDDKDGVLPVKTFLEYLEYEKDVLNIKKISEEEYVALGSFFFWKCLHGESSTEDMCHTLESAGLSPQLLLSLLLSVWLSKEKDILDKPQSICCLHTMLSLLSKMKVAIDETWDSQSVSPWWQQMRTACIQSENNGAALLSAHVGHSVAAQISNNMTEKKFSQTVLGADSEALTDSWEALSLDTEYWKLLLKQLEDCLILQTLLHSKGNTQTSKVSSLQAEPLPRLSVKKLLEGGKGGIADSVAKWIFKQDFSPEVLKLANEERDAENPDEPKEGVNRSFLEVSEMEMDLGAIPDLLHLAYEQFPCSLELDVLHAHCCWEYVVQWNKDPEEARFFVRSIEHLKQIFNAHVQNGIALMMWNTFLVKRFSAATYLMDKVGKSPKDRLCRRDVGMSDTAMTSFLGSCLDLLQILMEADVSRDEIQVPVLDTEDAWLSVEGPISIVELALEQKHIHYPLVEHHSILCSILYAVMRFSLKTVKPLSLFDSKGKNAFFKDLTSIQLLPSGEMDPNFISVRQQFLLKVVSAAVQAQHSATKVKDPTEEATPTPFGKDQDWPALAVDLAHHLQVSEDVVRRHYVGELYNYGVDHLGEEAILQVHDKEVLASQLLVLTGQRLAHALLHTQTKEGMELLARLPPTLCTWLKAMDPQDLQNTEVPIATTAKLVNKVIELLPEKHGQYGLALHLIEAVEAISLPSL

B1: Rab3GAP1 (human, full length, N-terminal TSP tag) (natural protein, UniProt Q15042 1-981, looked up)
chain: MAADSEPESEVFEITDFTTASEWERFISKVEEVLNDWKLIGNSLGKPLEKGIFTSGTWEEKSDEISFADFKFSVTHHYLVQESTDKEGKDELLEDVVPQSMQDLLGMNNDFPPRAHCLVRWYGLREFVVIAPAAHSDAVLSESKCNLLLSSVSIALGNTGCQVPLFVQIHHKWRRMYVGECQGPGVRTDFEMVHLRKVPNQYTHLSGLLDIFKSKIGCPLTPLPPVSIAIRFTYVLQDWQQYFWPQQPPDIDALVGGEVGGLEFGKLPFGACEDPISELHLATTWPHLTEGIIVDNDVYSDLDPIQAPHWSVRVRKAENPQCLLGDFVTEFFKICRRKESTDEILGRSAFEEEGKETADITHALSKLTEPASVPIHKLSVSNMVHTAKKKIRKHRGVEESPLNNDVLNTILLFLFPDAVSEKPLDGTTSTDNNNPPSESEDYNLYNQFKSAPSDSLTYKLALCLCMINFYHGGLKGVAHLWQEFVLEMRFRWENNFLIPGLASGPPDLRCCLLHQKLQMLNCCIERKKARDEGKKTSASDVTNIYPGDAGKAGDQLVPDNLKETDKEKGEVGKSWDSWSDSEEEFFECLSDTEELKGNGQESGKKGGPKEMANLRPEGRLYQHGKLTLLHNGEPLYIPVTQEPAPMTEDLLEEQSEVLAKLGTSAEGAHLRARMQSACLLSDMESFKAANPGCSLEDFVRWYSPRDYIEEEVIDEKGNVVLKGELSARMKIPSNMWVEAWETAKPIPARRQRRLFDDTREAEKVLHYLAIQKPADLARHLLPCVIHAAVLKVKEEESLENISSVKKIIKQIISHSSKVLHFPNPEDKKLEEIIHQITNVEALIARARSLKAKFGTEKCEQEEEKEDLERFVSCLLEQPEVLVTGAGRGHAGRIIHKLFVNAQRAAAMTPPEEELKRMGSPEERRQNSVSDFPPPAGREFILRTTVPRPAPYSKALPQRMYSVLTKEDFRLAGAFSSDTSFF
[1]
  stoichiometry N: 1
[2]
  stoichiometry N: 1
